This note sets out measurements from PMC5627308, “Biochemical Function, Molecular Structure and Evolution of an Atypical Thioredoxin Reductase from Desulfovibrio vulgaris” (Frontiers in Microbiology, 2017).

In one assay the target is T1, DvTR1 (Nitratidesulfovibrio vulgaris, UniProt Q72B02).
T1 construct: gene trxB-2; recombinant from E. coli, purified; FAD-containing
Kind of assay: reduction of bound flavin, absorbance spectra, anaerobic. It is filed as biochemical. Particulars: 100 uM NAD(P)H, 50 mM Tris-HCl pH 7.5, 150 mM NaCl, 25 C.

Assay [1] addresses DvTrx1C30S (Desulfovibrio vulgaris Hildenborough). The assay can be described thus: cross-linking; mixed-disulfide trapping with single-cysteine variants: DTT-reduced DvTRi variant reacted with equimolar DvTrx1 variant activated as TNB mixed disulfide, 50 mM Na/K phosphate pH 8.8, 2 h at 37°C; non-reducing SDS-PAGE, western blot with antiserum against EcTrxA. On the technique in general: In western blotting, separated proteins are transferred to a membrane and probed.

For assay [2], the target named is DvTrx1C33S (Desulfovibrio vulgaris Hildenborough). Described as above.
The target of assay [3] is DvTRi, isolated thioredoxin reductase from Desulfovibrio vulgaris Hildenborough (Desulfovibrio vulgaris Hildenborough). The assay can be described thus: crystal structure; oxidized DvTRi, 2.0 Å; crystals from 12% PEG 3350, 100 mM BisTris pH 6.0 (crystals 1) or 25% PEG 4000, 50 mM ammonium acetate, 100 mM sodium citrate pH 5.6 (crystals 2).
The next assay deals with T2, DvTR3 (Nitratidesulfovibrio vulgaris, UniProt Q72F38).
T2 construct: gene trxB-1; recombinant from E. coli, purified; FAD-containing
Kind of assay: reduction of bound flavin, absorbance spectra, anaerobic. The assay is classed as biochemical. To be noted: 100 uM NAD(P)H, 50 mM Tris-HCl pH 7.5, 150 mM NaCl, 25 C.

T1 sequence (Q72B02 entry or part of it): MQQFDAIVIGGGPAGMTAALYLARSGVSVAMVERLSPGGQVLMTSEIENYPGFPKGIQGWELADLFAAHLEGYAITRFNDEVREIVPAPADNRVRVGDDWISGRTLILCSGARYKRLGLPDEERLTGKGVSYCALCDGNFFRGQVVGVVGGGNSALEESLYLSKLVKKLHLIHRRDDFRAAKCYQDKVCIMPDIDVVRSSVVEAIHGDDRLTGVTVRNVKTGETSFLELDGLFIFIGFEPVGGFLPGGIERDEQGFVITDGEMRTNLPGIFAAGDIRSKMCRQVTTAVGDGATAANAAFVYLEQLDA
T2 sequence (Q72F38 entry or part of it): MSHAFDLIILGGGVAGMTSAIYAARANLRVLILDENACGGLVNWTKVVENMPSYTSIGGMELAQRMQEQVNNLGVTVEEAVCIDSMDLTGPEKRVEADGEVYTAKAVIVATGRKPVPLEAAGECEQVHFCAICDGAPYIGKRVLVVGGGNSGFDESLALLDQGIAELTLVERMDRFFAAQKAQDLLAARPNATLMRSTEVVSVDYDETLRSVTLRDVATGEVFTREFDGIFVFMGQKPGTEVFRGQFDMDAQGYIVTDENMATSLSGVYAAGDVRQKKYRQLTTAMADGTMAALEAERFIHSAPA

Turning to `NC(=O)C1=CN([C@@H]2O[C@H](COP(=O)(O)OP(=O)(O)OC[C@H]3O[C@@H](n4cnc5c(N)ncnc54)[C@H](OP(=O)(O)O)[C@@H]3O)[C@@H](O)[C@H]2O)C=CC1` [NADPH], the “reduction of bound flavin, absorbance spectra, anaerobic” value at DvTR1 is “DvTR1 and DvTR3 were efficiently reduced by their specific reductants”.
For orientation: stoichiometry N means a count of units in the complex or per binding partner. DvTrx1C30S (natural protein) gave a stoichiometry N in assay [1] of 2.
Molecule DvTrx1C33S (natural protein) registered a stoichiometry N in assay [2] of 2.
As for “DvTRi, isolated thioredoxin reductase from Desulfovibrio vulgaris Hildenborough (enzyme)”, the stoichiometry N in assay [3] stood at 2.
Regarding `NC(=O)C1=CN([C@@H]2O[C@H](COP(=O)(O)OP(=O)(O)OC[C@H]3O[C@@H](n4cnc5c(N)ncnc54)[C@H](O)[C@@H]3O)[C@@H](O)[C@H]2O)C=CC1` [NADH], on DvTR3, the “reduction of bound flavin, absorbance spectra, anaerobic” value was “DvTR1 and DvTR3 were efficiently reduced by their specific reductants”.
